Biological target: T1, GFP-AtCNIH5 (genomic AtCNIH5pro: GFP-AtCNIH5 in cnih5) (Arabidopsis thaliana, UniProt Q9SZ74 1-135)
T1 sequence (looked up): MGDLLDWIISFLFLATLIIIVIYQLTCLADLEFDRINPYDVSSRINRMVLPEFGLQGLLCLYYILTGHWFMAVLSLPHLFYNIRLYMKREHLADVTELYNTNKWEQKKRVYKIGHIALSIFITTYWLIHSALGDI
Experiment: co-IP

B1: endogenous AtPHF1 (natural protein, UniProt Q8GYE0 1-398, looked up)
chain: MEIEEASRESGHVVCGSWIRRPKKVNWVLIAKASKRRGSSVSSPALLNIFSFDPITASLSSSPLATHTLKDSDGDPVAVSVHPGGDYFVCSTSKGGCKLFELVGGATGITILAKELLPLQNAGLQKCMAFSFDGSKLAVGGVDGCLRIMEWPNLSVILDEPKAHKSIRDMDFSLDSEFLATTSTDGSARIWKAEDGFPLSTLERSGDENIELCRFSKDGTKPFLFCAAQRGDTPMVNVYDISTWKKLGFKKLSRKTASTMAVSLDGKYIALGGKDGDVSVAEVKTMEIYHYSKRLHLGQSIASLEFCPSERVMLTTSSEWGEMVTKLTVPKEWKEWQIYALLFCLFMASVIAAYVFFENSDSFWKLPMGKDQKRPKISLFGGSSSTPSEDHSRWNLDL
- fold co-immunoprecipitated against the free GFP control: ~40 times

Source: publication doi:10.1101/2024.06.20.599911 (bioRxiv, 2024)
